In assay [1] the target is Lachnospiraceae bacterium (ND2006) Cas12a (Lachnospiraceae bacterium (ND2006)). The experiment in a line: SEC-MALS.
In assay [2] the target is AcrVA4. The experiment in a line: SEC-MALS.

As to AcrVA4 (natural protein), in assay [1], the stoichiometry N (AcrVA4 per LbCas12a-crRNA) is 2. The stoichiometry N – broadly, a count of units in the complex or per binding partner – in assay [2] was 2.

The record behind these values is PMC6449189.
